In PMC4823841:

Target: recombinant human renin (human) (UniProt P00797)
Sequence of UniProt P00797 (P00797 67-406): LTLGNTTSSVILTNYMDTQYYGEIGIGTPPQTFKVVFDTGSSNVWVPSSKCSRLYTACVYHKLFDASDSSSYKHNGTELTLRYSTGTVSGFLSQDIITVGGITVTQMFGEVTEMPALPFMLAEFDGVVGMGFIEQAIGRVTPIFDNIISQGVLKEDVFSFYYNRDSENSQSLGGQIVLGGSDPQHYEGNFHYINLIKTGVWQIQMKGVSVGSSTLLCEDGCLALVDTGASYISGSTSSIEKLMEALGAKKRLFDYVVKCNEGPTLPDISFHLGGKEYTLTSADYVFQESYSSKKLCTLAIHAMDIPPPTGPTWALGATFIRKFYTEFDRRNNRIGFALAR

Km (steady-state kinetics of human renin, 25 pM, with 0-0.4 μM oANG at 37 °C, pH 7.2; angiotensin I generated, measured by ELISA; Hanes-Woolf plot): 0.072 μM
Substance: recombinant ovine angiotensinogen expressed in CHO cells (natural protein)
